Sequences and labels used below:
B1: VG9B409 (antibody, human IgG1, kappa, V domains shown)
VH: EVQLVESGAEVKKPGASVKVSCKASGYTLTSYYMHWVRQAPGQGLEWMGIINPSGGSTSYAQKFQGRVTMTRDTSTSTVYMELSSLRSEDTAVYYCARGSYGWYFDLWGRGTLVTVSS
VL: EIVLTQSPGTLSLSPGERATLSCRASQSVTSSYLAWYQQKPGQTPRLLIYGASSRATGIPDRISGSGSGTDFTLTVSRLEPEDFAVYYCQQYGSSPPYTFGQGTKLEIKR
B2: VG9B67 (antibody, human IgG1, kappa, V domains shown)
VH: EVQLVESGGGLVKPGGSLRLSCAASGFTFSSYTMNWVRQAPGKGLEWVSSISSSSSYIDYAESVKGRFTISRDNAKNSLYLQMNSLRAEDTAVYYCARDGDILATIRGSFDYWGQGTTVTVSS
VL: DIVMTQTPLSLPVTPGEPASISCRSSQSLLDSDAGNTYLDWYLQKPGQSPQLLIYTLSYRASGVPDRFSGSGSGTDFTLKISRVEAEDVAIYYCMQRIEFPITFGQGTKVEIKR
B3: VG9B127 (antibody, human IgG1, kappa, V domains shown)
VH: B2 VH with E1Q, A23T, S30G, S31A, Y60F, N84I, L103V, A104S, T117A, T118L
VL: B2 VL with D1E, T7S, A34D, A90G
B4: VG9B66 (antibody, human IgG1, kappa, V domains shown)
VH: B2 VH with S31T, S56F, I58M, E62D, Y80S, Q82L, L103V, T118M
VL: EIVLTQSPSSLSTSVGDRVTITCRASQDITNFLAWYQQKPGKLPKLLIYTASTLQSGVPSRFSGSASGPDFTLTISSLQPEDVATYYCQKYNSAPFTFGPGTKVEIKR
B5: VG9B152 (antibody, human IgG1, lambda, V domains shown)
VH: EVQLVESGGGLVRPGGSLRLSCEASGFTFSSYSMIWVRQAPGKGLEWVSSISSSSDYIYNADSVKGRFTISRDNAKNSLYLQMNSLRAEDTAVYYCARDWELLGFDCWGQGTTVTVSS
VL: SYELMQPPSVSVSPGQTASITCSGDKLGDKYACWYQQKPGQSPVLVIYQHNKRPSGIPERFSGSNSGKTATLTISGTQAMDEADYYCQAWDSTTVVFGGGTKLTVLG
B6: VG9B44 (antibody, human IgG1, kappa, V domains shown)
VH: QVQLQQSGPGLVKPSQTLSLTCAISGDSVSSNSAAWNWIRQSPSRGLEWLGRTYYRSKWYNDYPISVKSRISINPDTSKNQFSLQLNSVTPEDTAVYYCARESGSYYTDGFDIWGQGTMVTVSS
VL: DIQMTQSPSFLSASVGDRVTITCRASQGISSYLAWYQQKPGKAPKLLIYAASTLQSGVPSRFSGSGSGTEFTLTISSLQPEDFATYYCQEFNSYPYTFGQGTKLEIKR
B7: VG9B33 (antibody, human IgG1, kappa, V domains shown)
VH: EVQLVESGGGLVKPGGSLRLSCAASGFTFSSYNMNWVRQAPGKGLEWVSSISTSSSYIYYADSVKGRFTISRDNAKNSLYLQMNGLRAEDTAVYYCARDTSVTKYPDTFDIWGQGTMVTVSS
VL: DIVMTQSPSSLSASVGDRVTITCRASQDINNYLAWFQQKPGKVPNLLIYGASTLQSGVPSRFTGSGSGTDFTLTISSLQPEDVATYYCQKYNSAPFTFGPGTKVDIKR
B8: VG9B60 (antibody, human IgG1, kappa, V domains shown)
VH: QVQLVQSGAEVKKPGASVKVSCKASGYTFTGYYMHWVRQAPGQGLEWMGRINPNSGVTHYAQKFQGRVTMTRDTSISTAYMELSRLRSDDTAVYYCARGGSLVRGVISGLDYWGQGTTVTVSS
VL: DIVMTQSPGTLSLSPGERATLSCRASQSFSGSYLAWYQQKPGQAPSLLIYGASSRATGIPDRFSGSGSGTDFTLTISRLEPEDFALYYCQQYGSSPPYTFGQGTKVEIKR
B9: VG9B57 (antibody, human IgG1, kappa, V domains shown)
VH: EVQLVESGGGLVKPGGSLRLSCAASGFTFSSHDMNWVRQAPGKGLGWVSSISSSSSYIFYADSVKGRFTISRDNAKNSLYLQMSSLRAEDTAVYYCARDLGVGVRDYYYYGMDVWGQGTMVTVSS
VL: DIQMTQSPSAMSASVGDRVTITCRASQDITNYLAWFQQKPGKVPKRLIYAASSLQGGVPSRFSGSGSGTEFTLTISSLQPEDFSTYYCLQHDTYPYTFGQGTKLEIKR
B10: VG9B21 (antibody, human IgG1, kappa, V domains shown)
VH: EVQLLESGGGLVKPGGSLRLSCAASGFSFSNYDMNWVRQAPRKGLEWVSSISSSSHYIYYADSLKGRFTISRDNAKNSLFLQMNSLRAEDTAVYYCARDRGVTTDYYYYALDVWGQGTMVTVSS
VL: DIVMTQSPSSLSASVGDRVTITCRASQGIYNYLAWYQQKPGNVPKLLIYAASTLQSGVPSRFSGSGSGTDFSLTISSLQPEDFTTYYCQKYNRAPFTFGPGTKVDIKR
B11: VG9B162 (antibody, human IgG1, lambda, V domains shown)
VH: QVQLVESGAEVTKPGASVKVSCKASGYTFTGDYMHWVRQAPGQGLEWMGWINPNSGYTNYAQKFQGRVTMTRDTSISTAYMELSRLRSDDTAVYYCAREGDAFDVWGQGTMVTVSS
VL: QLVLTQSSSASGSPGQSVTISCTGTSSDVGGYNYVSWYQQHPGKAPKLMIYEVSKRPSGVPDRFSGSKSGNTASLTVSGLQAEDEADYYCNSYAGSNNFEVFGGGTKLTVLG
B12: VG9B191 (antibody, human IgG1, lambda, V domains shown)
VH: EVQLVQSGGGLVKPGGSLRLSCAASGFTFSRYSMNWVRQAPGKGLEGVSSISSSSSYIYYADSVKGRFTISRDNAKNSLYLQMNSLRAEDTAVYYCARDGPTVNWDYYFDLWGRGTLVTVSS
VL: QSVLTQPPSVSAAPGQKVTISCSGSSSNIGNNYVSWYQQLPGTAPKLLIYDNNKRPSGIPDRFSGSKSGTSATLGITGLQTGDEADYYCGTWDSSLSTSVVFGGGTKLTVLG

Where a chain is given by its changes, count along the chain named.

Chain of Vg9/Vd2 TCR on SKW3_4 cells (Q99603 21-122, chain 1 of 2): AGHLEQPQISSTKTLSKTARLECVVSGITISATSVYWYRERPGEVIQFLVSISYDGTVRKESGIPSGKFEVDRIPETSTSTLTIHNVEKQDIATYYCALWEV
Chain of Vg9/Vd2 TCR on SKW3_4 cells (A0JD36 20-115, chain 2 of 2, further chain): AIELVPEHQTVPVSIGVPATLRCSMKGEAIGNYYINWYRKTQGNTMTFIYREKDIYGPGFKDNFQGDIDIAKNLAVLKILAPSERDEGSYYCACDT

The target in one experiment is Vg5/Vd2 TCR on SKW3 cells (UniProt A0JD36). The experiment is described as follows: flow cytometry, dose-response binding at 37° C. on SKW3 cells expressing Vg5/Vd2. In general terms: Flow cytometry measures light scatter and fluorescence of single cells or particles in a stream.
Chain of Vg5/Vd2 TCR on SKW3 cells (A0JD36 20-115): as the sequence (A0JD36 20-115, chain 2 of 2, further chain) above
On to B1, for which the Max. Activity (fold over background) was found to be 8.45.

Molecule B2 yielded a Max. Activity (fold over background) of 1.14.

The molecule B3 registered a Max. Activity (fold over background) of 1.78.

With B4, the Max. Activity (fold over background) is 1.04.

B5 gave a Max. Activity (fold over background) of 1.64.

B6 displayed a Max. Activity (fold over background) of 2.13.

As to B7, the Max. Activity (fold over background) stood at 2.85.

In turn, B8 gave a Max. Activity (fold over background) of 1.42.

The molecule B9 came in with a Max. Activity (fold over background) of 1.04.

In the case of B10, the Max. Activity (fold over background) came to 1.86.

Take B11: the Max. Activity (fold over background) came to 2.44.

The molecule B12 registered a Max. Activity (fold over background) of 17.2.

A further experiment deals with Vg9/Vd1 TCR on SKW3 cells (UniProt Q99603). The experiment is described as follows: flow cytometry, dose-response binding at 37° C. on SKW3 cells expressing Vg9/Vd1.
Chain of Vg9/Vd1 TCR on SKW3 cells (Q99603 21-122): as the sequence (Q99603 21-122, chain 1 of 2) above
B1: the Max. Activity (fold over background) is 408.

B2 yielded a Max. Activity (fold over background) of 318.

With B3, the Max. Activity (fold over background) worked out at 318.

The molecule B4 had a Max. Activity (fold over background) of 179.

For B5, the Max. Activity (fold over background) worked out at 352.

For the molecule B6, the Max. Activity (fold over background) amounted to 375.

On to B7, for which the Max. Activity (fold over background) is 377.

Molecule B8 yielded a Max. Activity (fold over background) of 40.6.

Molecule B9 returned a Max. Activity (fold over background) of 75.9.

B10: the Max. Activity (fold over background) stood at 121.

B11 displayed a Max. Activity (fold over background) of 249.

B12 showed a Max. Activity (fold over background) of 381.

A further experiment addresses Vg9/Vd2 TCR on SKW3_4 cells (UniProt Q99603). The experiment is described as follows: flow cytometry, dose-response binding at 37° C. on SKW3_4 cells expressing Vg9/Vd2.
B1 had a Max. Activity (fold over background) of 176.

Consider B2, for which the Max. Activity (fold over background) was 128.

B3 gave a Max. Activity (fold over background) of 91.9.

In turn, B4 had a Max. Activity (fold over background) of 33.9.

B5 came in with a Max. Activity (fold over background) of 141.

In turn, B6 showed a Max. Activity (fold over background) of 170.

Molecule B7 had a Max. Activity (fold over background) of 173.

The molecule B8 came in with a Max. Activity (fold over background) of 16.7.

With B9, the Max. Activity (fold over background) was found to be 30.8.

As for B10, the Max. Activity (fold over background) is 39.7.

Molecule B11 had a Max. Activity (fold over background) of 96.3.

B12: the Max. Activity (fold over background) came out at 156.

The values are drawn from patent US20220125947A1.
